Experimental data reported in US20260104418A1 (published 2026).

How the values were obtained:
[1] = molecular target: T1, human Claudin-18.2 (CLDN18.2) (human); experiment: FACS titration of AF647-labelled IgG on HEK293T cells overexpressing human CLDN18.2 (clone C12)
T1 construct: On cells: endogenous on HUPT4 and SNU601; also called human CLDN18.2
Excerpt: (§1) CLDN18.2-expressing cells were used in FACS assays to determine the CLDN18.2 antibody's ability to bind to CLDN18.2 on the surface of cells and to cross-react with other CLDN family members. HEK293 T cells engineered to express human CLDN18.2 fused to GFP, mouse CLDN18.2 fused to GFP, CLDN18.1-GFP, or GFP alone (without CLDN18.2) were used as artificial models of CLDN18.2 expression. HUPT4, SNU601, and PATU8988S cells were used as endogenous models of CLDN18.2 expression.
(§2) For each type of cell tested and for each mAb, cells were detached from the surface of the culture flasks by versene (instead of trypsin) in order to protect the cell surface proteins. The detached cells were then incubated with Alexa Fluor®-labeled CLDN18.2 mAbs for 30 min in the dark on ice at a pre-determined concentration. […] After washing, the cells were read by a BD Accuri™ Flow Cytometer C6 to detect antibody-antigen protein binding in channel FL4H. Each antibody was tested at varied concentrations to establish a dose-fluorescence curve.

[2] = molecular target: T1, human Claudin-18.2 (CLDN18.2); experiment: FACS, 1.5 ug antibody, HUPT4 cells (endogenous CLDN18.2)
Description: (§3) FAGS assays were carried out to determine relative antigen binding strengths of the humanized antibodies (at either 1.5 ag or 0.3 rag) for binding to CLDN18.2 as expressed by the indicated cancer cell lines.

[3] = molecular target: T1, human Claudin-18.2 (CLDN18.2); experiment: FACS, 1.5 ug antibody, HEK293T-CLDN18.2 C12 clone
Description: as §3

[4] = molecular target: T1, human Claudin-18.2 (CLDN18.2); experiment: FACS titration of AF647-labelled IgG on SNU601 cells (endogenous CLDN18.2)
Excerpt: as §1, §2

[5] = molecular target: T1, human Claudin-18.2 (CLDN18.2); experiment: FACS titration of AF647-labelled IgG on HUPT4 cells (endogenous CLDN18.2)
Excerpt: as §1, §2

| Binder | EC50 [1] [nM] | FACS signal (relative antigen binding strength) [2] | FACS signal (relative antigen binding strength) [3] | EC50 [4] [nM] | EC50 [5] [nM] |
| --- | --- | --- | --- | --- | --- |
| Reference antibody 1 (Benchmark 1-175D10) (antibody, V domains shown) VH: QVQLQQPGAELVRPGASVKLSCKASGYTFTSYWINWVKQRPGQGLEWIGNIYPSDSYTNYNQKFKDKATLTVDKSSSTAYMQLSSPTSEDSAVYYCTRSWRGNSFDYWGQGTTLTVSS VL: DIVMTQSPSSLTVTAGEKVTMSCKSSQSLLNSGNQKNYLTWYQQKPGQPPKLLIYWASTRESGVPDRFTGSGSGTDFTLTISSVQAEDLAVYYCQNDYSYPFTFGSGTKLEIK | 1090 | 2450 | 80600 | – | – |
| Ab 331 (antibody, V domains shown, Full-length IgG from ExpiCHO) VH: EVQLQQSGPELVKPGASVRMSCKASGYTFTSYIMHWVKQKPGQGPEWMGYINPYNDGTNYNEKFKDKATLTSDKSSSTAYMDLSSLTSEDSAVYYCTRGDYWGQGTSVTVSS VL: DIVMTQSPSSLTVTAGEKVTMSCKSSQSLLNSGNQKNYLTWYQQKPGQPPKLLFYWASTKKSGVPDRFTGSGSRTDFTLTISSVQAEDLAVYYCLNDYSFPLTFGAGTKLELK | 23.1 | – | – | 106 | 606 |
| Ab 360 (antibody, V domains shown, Full-length IgG from ExpiCHO; also called 360-Chim) VH: VVQLQQSGPELVKPGASVKMSCKASGYTFTSYLMHWVRQKPGLGLDWIGYINPYNDGTNYNAKFIDKATLTSDKTSSTAYMELSSLTSEDSAIYYCTRGDYWGQGTSVTVSS VL: DIVMTQSPSSLAVTAGEQVTMSCKSSQSLLNSGNQKNYLTWYQQKPGQPPKLLIYWASIRQSGVPDRFTGSGSGTDFTLTISSVQAEDLAVYYCLNDYGFPLTFGAGTKLELK | 39.7 | – | – | 119 | 693 |
| Ab 369 (antibody, V domains shown, Full-length IgG from ExpiCHO) VH: DVKLVESGGGLVKPGGSLKLSCAASGFTFTSYTMSWVRQTPEKRLEWVATIIIGGSYTYYPDSVKGRFTISRDNAKNTLYLQMSSLKSEDTAMYYCTRLVKGNAMDYWGQGTSVTVSS VL: DILMTQSPSSLTVTAGEKVTMTCKSSQSLLNSGNQKNYLTWYQQKPGQPPKLLIYWASSRESGVPDRFTGSGSGTDFTLTISSVQAEDLAVYYCQNDYSYPFTFGAGTKLELK | 40 | – | – | 276 | 265 |
| Ab 392 (antibody, V domains shown, Full-length IgG from ExpiCHO) VH: EVQLQQSGPELVKPGASVKMSCKASGFTFTSYVMHWVKQKSGQGLEWIGYINPYNDDIKYNAKFEDKATLTSDRSSSTAYMELSSLTSDDSAVYFCTRGDYWGQGTTLTVSS VL: DIVMTQSPSSLTVTTGEKVTMDCKSSQSLLNSGNQKNYLTWYQQKSGQPPKLLIYWASIRKSGVPDRFTGSGSGTDFTLTISSVQAEDLAVYYCLNDYSFPLTFGAGTKLELK | 446 | – | – | – | – |
| Ab 384 (antibody, V domains shown, Full-length IgG from ExpiCHO) VH: QVQLQQSGAELARPGASVKLSCKASDYTFTSYVISWVKQRTGQGLEWIGEIYPRNGNTYYNEKFKGKATLTADKSSSTAYMELRSLTSEDSAVYFCARSYYGNSFAYWGQGTLVTVSA VL: DIVMTQSPSSLTVTAGEKVTMSCKSSQSLLNSGNQKNYLTWYQQRPGQPPKLLIYWASTRESGVPDRFTGSGSGTDFTLTISSVQAEDLAVYCCQNNYYYPFTFGGGTKLGIK | 595 | – | – | – | – |
| Ab 400 (antibody, V domains shown, Full-length IgG from ExpiCHO) VH: QVQLKESGPGLVAPSQSLSITCTVSGFSLNSYGVSWVRQPPGKGLEWLGVIWGDGSTNYHSALKSRLNINKDKSKSQVFLKLNSLQTDDTATYYCARPTRGNAMDYWGQGTSVTVSS VL: DVVMTQSPSSLTVTAGEKVTMNCKSSQSLLNSGNQRSYLTWYQQKPGQPPKLLIYWASTRESGAPDRFTGSGSGADFTLTISSVQAEDLAIYYCQNNYNYPFTFGSGTKLEIK | 31.2 | – | – | 270 | 97.8 |
| Reference antibody 2 (Benchmark 2-163E12) (antibody, V domains shown) VH: QVQLQQSGAELARPGASVKLSCKASGYTFTDYYINWVKQRTGQGLEWIGEIYPGSGNTYYNEKFKGKATLTADKSSSTAYMQLSSLTSEDSAVYFCARSYGAFDYWGQGTTLTVSS VL: DIVMTQSPSSLTVTAGEKVTMSCKSSQSLLNSGNQKNYLTWYQQKPGQPPKLLIYWASTRESGVPDRFTGSGSGTDFTLTISSVQAEDLAVYYCQNDYSYPLTFGAGTKLELK | 1740 | 11100 | 125000 | – | – |
| Ab 307 (antibody, V domains shown, Full-length IgG from ExpiCHO) VH: DVKLVESGGGLVKPGGSLKLSCAASGFTFSSYTMSWVRQTPEKRLEWVATIIIGGSYTYYPDSVKGRFTISRDNAKNTLYLQMSSLKSEDTAMYYCTRLVKGNAMDYWGQGTSVAVSS VL: DIVMTQSPSSLTVTTGEKVTMSCKSSQSLLNSGNQKNYLSWYQQIPGQPPKLLFYWASTRESGVPDRFTGSGSGTDFTLTISNVQAEDLAVYYCQNDYSYPFTFGAGTKLELR | 39.1 | – | – | 221 | 336 |
| Ab 301 (antibody, V domains shown, Full-length IgG from ExpiCHO) VH: VVQLQQSGPELVKPGASVKMSCKASGYTFTSFLIHWVRQKPGLGLEWIGYINPYDYGINYNVKFMDKVTLTSDKTSSTAYMELSSLTSADSAIYYCTRGDYWGQGTSVIVSS VL: DIVMTQSPSSLAVTTGEQVTMNCKSSQSLLNSGNQKNYLTWYQQKTGQSPKLLIYWASTRQSGVPDRFTGSGSGTDFTLTISSVQAEDLAVYYCLNDYGFPLTFGAGTKLELK | 22.1 | – | – | 256 | 143 |

Second part, the binder after the results:

| EC50 [1] [nM] | FACS signal (relative antigen binding strength) [2] | FACS signal (relative antigen binding strength) [3] | EC50 [4] [nM] | EC50 [5] [nM] | Binder |
| --- | --- | --- | --- | --- | --- |
| 42.3 | – | – | 245 | 348 | Ab 432 (antibody, V domains shown, Full-length IgG from ExpiCHO; also called 432-Chim) VH: QIQLQQSGAELARPRASVKLSCKASGYTFTSDVISWVKQRPGQGLEWIGESYLRNGNTYYNENFKGKATLTADKSSSTAYMELRSLTSEDSAVYFCARSYYGNSFAYWGQGTLVTVSA VL: DIVMTQSPSSLTVTAREKVTMNCKSTQSLLNSGNQKNYLTWYQQKPGQPPKLLIYWASTRESGVPDRFTGSGSGTDFTLTISSVQAEDLAVYYCQNAYYYPFTFGGGTKLEIK |
| 54.5 | – | – | 414 | 111 | Ab 358 (antibody, V domains shown, Full-length IgG from ExpiCHO) VH: VVQLVESGGDFVQPGGSRKLSCAVSGFTFSSFGMHWVRQAPEKGLEWVAYISSGTTNIYYADTVKGRFTVSRDNPKNSLFLHMTSLRSEDTAMYYCVRSGYYGNSLDYWGQGTPLTVSS VL: DIVMTQSPSSLTVTAGEKVTMSCKSSQSLFNSGNQRNYLTWYQQKPGQPPKLLIYWASTRESGVPDRFTGSGSGTGFTLTISSVQAEDLAFYYCQNVYIYPLTFGLGTKLELR |
| 70.4 | – | – | 276 | 294 | Ab 347 (antibody, V domains shown, Full-length IgG from ExpiCHO) VH: EVQLQQSGPELVKPGASVKMSCKASGYTFTSYLIHWVKQKPGQGLEWIGYINPYNDATYYNEKFKAKATLTSDKSSSTAYMELSSLTSEDTAIYYCTRGDYWSQGTSVTVSS VL: DIVMTQSPSSLTVTAGEKVTMSCKSSQSLLNSGNQKNYLTWYQQKPGQPPKLLIYWASTRQSGVPDRFTGSGSGTDFTLTISSVQAEDLTVYYCLNDYSFPLTFGAGTKLELK |
| 52.1 | 31300 | 137000 | – | – | Ab 376 (antibody, V domains shown, Full-length IgG from ExpiCHO) VH: DVKLVESGGGLVKPGGSLKLSCAASGFTFSSYTMSWVRQTPEKRLYWVATISSGVSYTYYPDSVKGRFTISRDNAKNTLYLQMSSLKSEDTAMYYCTRLTKGNAMDYWGQGTSVTVSS VL: DIVMTQSPSSLTVTAGEKVTMSCKSSQSLLNSGNQKNYLTWYQQKPGQPPKLLIYWASTRESGVPDRFTGSGSGTGFTLTISSVQAEDLAVYYCQNDYSYPFTFGAGTKLELK |
| 605 | – | – | – | – | Ab 409 (antibody, V domains shown, Full-length IgG from ExpiCHO; 38 is used) VH: QVQLQQSGAELARPGASVKLSCKASGYTFTSYGISWVKQRTGQGLEWIGEISPRSGNTYYNEKFKGKATLTADKSSSTAYMELRSLTSEDSAVYFCATGVITTVIPTDWYFDVWGTGTTVTVSS VL: DIQMTQTTSSLSASLGDRVTISCRASQDISNYLNWYQQKPDGTVKLLIYYTSRLHSGVPSRFSGSGSGTDYSLTISNLEPEDIATYYCQHYSKLPPTFGSGTKLEIK |
| 597 | – | – | – | – | Ab 416 (antibody, V domains shown, Full-length IgG from ExpiCHO) VH: EFQLQQSGPELVKPGASVKISCKASVYSFTGYNMNWVKQSNGKSLEWIGVINPNYGNTNYNQRFKGKATLTVDQSSSTAYMQLNSLTSEDSAVYYCARSEDYYNIRGASWGQGTLVTVSA VL: QIVLTQSPAIMSASPGQKVTITCSASSTINYMHWYQQKLGSSPKLWIYDTSKLAPGVPARFSGSGSGTSYSLTISSMEAEDAASYFCHQWSSYPPTFGSGTKLELK |
